# Substitutions are numbered along the chain they refer to. Names may count otherwise. No end group written: not given here. fluorescein = N-terminal fluorescein probe
# T1: Src-phosphorylated C3G-AAPA (pC3G-AAPA) (human, UniProt Q13905-1 4-1077, phosphotyrosines (phosphorylated in vitro by Src; sites not stated))
# T1 chain: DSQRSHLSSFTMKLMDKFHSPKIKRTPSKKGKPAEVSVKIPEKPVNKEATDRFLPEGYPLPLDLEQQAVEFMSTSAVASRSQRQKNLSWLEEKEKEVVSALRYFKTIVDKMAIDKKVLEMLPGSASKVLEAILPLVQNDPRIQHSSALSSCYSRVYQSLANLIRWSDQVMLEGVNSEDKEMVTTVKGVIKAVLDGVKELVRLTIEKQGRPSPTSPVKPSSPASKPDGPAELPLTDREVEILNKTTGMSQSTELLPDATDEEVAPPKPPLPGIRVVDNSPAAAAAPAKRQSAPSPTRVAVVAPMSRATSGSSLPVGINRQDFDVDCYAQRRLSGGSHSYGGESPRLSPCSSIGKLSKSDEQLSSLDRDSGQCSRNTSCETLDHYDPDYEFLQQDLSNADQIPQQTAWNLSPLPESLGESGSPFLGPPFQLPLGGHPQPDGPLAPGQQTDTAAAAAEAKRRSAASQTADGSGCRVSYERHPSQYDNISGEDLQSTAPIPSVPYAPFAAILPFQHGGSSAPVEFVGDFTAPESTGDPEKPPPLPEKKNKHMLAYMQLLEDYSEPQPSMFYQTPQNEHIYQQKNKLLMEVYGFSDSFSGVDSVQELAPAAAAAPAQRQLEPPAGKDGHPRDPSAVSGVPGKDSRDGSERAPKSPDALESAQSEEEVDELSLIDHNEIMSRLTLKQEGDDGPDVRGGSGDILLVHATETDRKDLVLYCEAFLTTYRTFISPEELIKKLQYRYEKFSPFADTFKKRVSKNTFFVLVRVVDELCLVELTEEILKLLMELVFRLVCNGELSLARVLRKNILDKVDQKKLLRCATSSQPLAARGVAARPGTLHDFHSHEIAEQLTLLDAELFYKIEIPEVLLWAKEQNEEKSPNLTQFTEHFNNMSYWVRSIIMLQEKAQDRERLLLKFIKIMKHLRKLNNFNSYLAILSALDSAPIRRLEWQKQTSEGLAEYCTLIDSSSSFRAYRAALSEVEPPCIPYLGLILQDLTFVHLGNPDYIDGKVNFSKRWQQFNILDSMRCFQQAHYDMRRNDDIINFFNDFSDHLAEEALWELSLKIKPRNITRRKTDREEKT
# T2: C3G full-length wild type (human, isoform a, residues 4-1077) (human, UniProt Q13905-1 4-1077)
# T2 sequence (looked up): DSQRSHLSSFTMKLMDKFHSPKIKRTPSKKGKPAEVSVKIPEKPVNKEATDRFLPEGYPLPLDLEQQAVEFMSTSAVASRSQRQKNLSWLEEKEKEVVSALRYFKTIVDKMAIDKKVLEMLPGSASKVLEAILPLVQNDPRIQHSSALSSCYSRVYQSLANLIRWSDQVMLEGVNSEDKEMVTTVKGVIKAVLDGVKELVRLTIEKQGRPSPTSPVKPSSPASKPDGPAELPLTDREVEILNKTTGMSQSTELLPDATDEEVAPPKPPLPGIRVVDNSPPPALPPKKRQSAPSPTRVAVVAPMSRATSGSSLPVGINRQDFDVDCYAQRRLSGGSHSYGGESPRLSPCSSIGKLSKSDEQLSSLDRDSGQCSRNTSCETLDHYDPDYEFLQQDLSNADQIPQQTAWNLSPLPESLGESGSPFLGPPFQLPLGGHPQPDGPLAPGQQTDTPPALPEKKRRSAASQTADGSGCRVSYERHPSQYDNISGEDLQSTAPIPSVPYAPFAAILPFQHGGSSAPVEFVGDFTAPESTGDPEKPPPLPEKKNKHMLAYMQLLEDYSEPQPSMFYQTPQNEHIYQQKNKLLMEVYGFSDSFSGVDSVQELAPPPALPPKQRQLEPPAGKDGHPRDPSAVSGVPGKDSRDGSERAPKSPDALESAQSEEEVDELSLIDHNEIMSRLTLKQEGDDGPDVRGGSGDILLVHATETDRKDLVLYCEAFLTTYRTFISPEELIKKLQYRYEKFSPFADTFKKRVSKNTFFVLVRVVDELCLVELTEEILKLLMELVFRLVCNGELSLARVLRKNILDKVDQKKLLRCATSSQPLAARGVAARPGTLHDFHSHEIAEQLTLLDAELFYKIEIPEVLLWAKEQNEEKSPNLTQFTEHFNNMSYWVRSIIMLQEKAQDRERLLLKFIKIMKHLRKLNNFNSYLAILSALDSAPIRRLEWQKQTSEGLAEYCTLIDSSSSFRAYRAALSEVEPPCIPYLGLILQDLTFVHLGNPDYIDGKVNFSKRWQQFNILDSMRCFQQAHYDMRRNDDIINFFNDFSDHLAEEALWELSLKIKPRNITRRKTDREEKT
# T3: Src-phosphorylated C3G (pC3G), wild type (human, UniProt Q13905-1 4-1077, phosphotyrosines (phosphorylated in vitro by Src; sites not stated))
# T3 sequence (looked up): T2 sequence (looked up)
# B1: C3G P1 peptide (residues 280-293), fluorescein-labeled (peptide, UniProt Q13905-1 280-293, looked up)
# peptide: fluorescein-NSPPPALPPKKRQS
# notes: Pro-rich motif P1 of human C3G, residues 280-293; source: synthetic peptide (custom synthesized, Thermo Scientific)
# B2: C3G-APAA (natural protein)
# chain: T1 chain with A450P, A451P, A453L, A454P, A456K, P537A, P538A, L540A, P541A, K543A
# B3: CrkL-SH3N (residues 125-182) (domain or fragment, human, UniProt P46109 125-182, looked up)
# chain: LEYVRTLYDFPGNDAEDLPFKKGEILVIIEKPEEQWWSARNKDGRVGMIPVPYVEKLV
# notes: human CrkL, SH3N domain, residues 125-182, in pETEV15b; also called SH3N domain of CrkL; isolated SH3N domain; source: E. coli BL21 (DE3), purified (His-tagged, purified in a similar manner as C3G)
# B4: CrkL, full-length (human) (natural protein, UniProt P46109 1-303, looked up)
# chain: MSSARFDSSDRSAWYMGPVSRQEAQTRLQGQRHGMFLVRDSSTCPGDYVLSVSENSRVSHYIINSLPNRRFKIGDQEFDHLPALLEFYKIHYLDTTTLIEPAPRYPSPPMGSVSAPNLPTAEDNLEYVRTLYDFPGNDAEDLPFKKGEILVIIEKPEEQWWSARNKDGRVGMIPVPYVEKLVRSSPHGKHGNRNSNSYGIPEPAHAYAQPQTTTPLPAVSGSPGAAITPLPSTQNGPVFAKAIQKRVPCAYDKTALALEVGDIVKVTRMNINGQWEGEVNGRKGLFPFTHVKIFDPQNPDENE
# notes: Monomer by sedimentation velocity and DLS (theoretical mass 33.7 kDa); Purification 'in a similar manner' as C3G would include TEV cleavage of the tag; also called Crk-like protein; wild type CrkL; source: E. coli BL21 (DE3), purified (His-tagged, purified in a similar manner as C3G)
# B5: GST-CrkL R39K (natural protein, human, UniProt P46109 1-303, looked up)
# chain: B4 chain with R39K
# notes: human CrkL, full-length, R39K; the results print 'R93K alone', the methods and the sentence before print R39K; also called R93K; source: E. coli BL21 (DE3), purified GST fusion
# How the values were obtained:
# [1] = molecular target: B4; test: fluorescence polarisation; fluorescein peptides at 0.2 µM titrated with CrkL; 20 mM Tris-HCl, 150 mM NaCl, pH 7.5, 0.1 mg/ml BSA; 1:1 model; apparent kd; conditions: both partners purified
# [2] = molecular target: B4; test: ITC; single-PRM mutants of C3G in the cell titrated with full-length CrkL or CrkL-SH3N; 25 °C; 1:1 model in SEDPHAT; N is the competent fraction of C3G; conditions: both partners purified
# C3G-AAPA-Y554H = C3G-AAPA-Y554H (human, UniProt Q13905-1 4-1077, Y554H); test: as above; conditions: both partners purified
# [3] = molecular target: T1, Src-phosphorylated C3G-AAPA (pC3G-AAPA); test: as above; conditions: both partners purified
# [4] = molecular target: T2, C3G full-length wild type (human, …); test: cell-based or functional assay
# [5] = molecular target: T3, Src-phosphorylated C3G (pC3G), wild type; test: cell-based or functional assay
# [6] = molecular target: T2, C3G full-length wild type (human, …); test: ITC; C3G in the cell titrated with CrkL; 25 °C; 300 mM NaCl, pH 7.5 (Tris-HCl or Na-phosphate); three titrations fitted one by one, independent-site model (MicroCal Origin); conditions: both partners purified
# [7] = molecular target: T3, Src-phosphorylated C3G (pC3G), wild type; test: cell-based or functional assay; remark: listed apart in the source
# [8] = molecular target: T3, Src-phosphorylated C3G (pC3G), wild type; test: ITC; full-length C3G or pC3G in the cell titrated with CrkL, CrkL fragments, CrkL-W160S or CrkII; 25 °C; 300 mM NaCl, pH 7.5; parameters in Table S11; conditions: both partners purified
# [9] = molecular target: T2, C3G full-length wild type (human, …); test: ITC; same three titrations of C3G with CrkL, global fit in SEDPHAT, three symmetric binding sites, microscopic kd; conditions: both partners purified
# [10] = molecular target: T2, C3G full-length wild type (human, …); test: AUC; sedimentation velocity of C3G with increasing CrkL; 20 mM Tris-HCl, 300 mM NaCl, pH 7.5, 20 °C, 48,000 rpm; isotherms fitted with three symmetric sites (Gilbert-Jenkins), microscopic kd; conditions: both partners purified
# [11] = molecular target: T3, Src-phosphorylated C3G (pC3G), wild type; test: pull-down; 30 µg GST-CrkL (full-length or SH3N) with 30 µg C3G on glutathione-agarose; 20 mM Tris-HCl, 150 mM NaCl, pH 7.5, 0.01% BSA; 30 min, 4 °C; washes with 0.1% Triton X-100; coomassie or western blot; conditions: both partners purified
binder,measurement,setting,value
B1,binding result,[1],binds
B2,Kd,[2],~1 µM
B3,Kd,C3G-AAPA-Y554H,0.8 µM
same,stoichiometry N,C3G-AAPA-Y554H,~0.5 molecules of SH3N per molecule of C3G-AAPA-Y554H
same,stoichiometry N,[3],~0.1
same,AC50 of the dose-response activation of the GEF activity of C3G (1 µM) on Rap1b:mant-dGDP,[4],26.8 µM
same,kmax of the dose-response activation of the GEF activity of C3G (1 µM) on Rap1b:mant-dGDP,[4],6300 M⁻¹ s⁻¹
same,AC50 of the dose-response activation of the GEF activity of pC3G (0.2 µM) on Rap1b:mant-dGDP,[5],12.8 µM
same,kmax of the dose-response activation of the GEF activity of pC3G (0.2 µM) on Rap1b:mant-dGDP,[5],0.0139 s^-1 µM^-1
B4,Kd,[6],2.8 to 3.6 µM
same,stoichiometry N,[6],~3 molecules of CrkL per molecule of C3G
same,"GEF activity of pC3G (0.2 µM) on Rap1b:mant-dGDP with 5 µM CrkL, fold over pC3G alone",[7],~9 fold
same,Kd,[8],1.3 µM
same,Kd,[9],2.3 µM
same,AC50 of the dose-response activation of the GEF activity of C3G (1 µM) on Rap1b:mant-dGDP,[4],22.4 µM
same,kmax of the dose-response activation of the GEF activity of C3G (1 µM) on Rap1b:mant-dGDP,[4],13400 M⁻¹ s⁻¹
same,AC50 of the dose-response activation of the GEF activity of pC3G (0.2 µM) on Rap1b:mant-dGDP,[5],1.7 µM
same,kmax of the dose-response activation of the GEF activity of pC3G (0.2 µM) on Rap1b:mant-dGDP,[5],0.0342 s^-1 µM^-1
same,Kd,[10],1.4 µM
same,koff,[10],> 0.001 s⁻¹
B5,binding result,[11],binds

# From PMC9896810, “Crk proteins activate the Rap1 guanine nucleotide exchange factor C3G by segregated adaptor-dependent and -independent mechanisms” (Cell Communication and Signaling : CCS, 2023)
